Data: patent US20250034266A1

Legend:
[1] = target: human CCR8 (human) (UniProt P51685); assay: flow cytometry on TALL-1 cells (endogenous CCR8)
[2] = target: human CCR8 (human) (UniProt P51685); assay: FACS, competition with AF647-human CCL1 on CHO-K1-human CCR8 cells
[3] = target: T1, human CCR4 (human) (UniProt P51679); assay: FACS on ExpiCHO-S-human CCR4 cells
T1 sequence (looked up): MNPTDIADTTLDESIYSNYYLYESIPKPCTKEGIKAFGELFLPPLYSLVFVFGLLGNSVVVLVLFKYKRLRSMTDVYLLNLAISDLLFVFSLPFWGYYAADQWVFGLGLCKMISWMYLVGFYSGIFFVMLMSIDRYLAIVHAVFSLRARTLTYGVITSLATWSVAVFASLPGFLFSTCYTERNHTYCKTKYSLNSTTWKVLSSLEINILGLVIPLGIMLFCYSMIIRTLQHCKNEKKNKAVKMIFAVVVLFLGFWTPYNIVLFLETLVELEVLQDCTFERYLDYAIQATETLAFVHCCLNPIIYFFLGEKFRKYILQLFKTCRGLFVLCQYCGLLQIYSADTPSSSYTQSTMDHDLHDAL

[4] = target: human CCR8 (human) (UniProt P51685); assay: FACS on CHO-K1-human CCR8 cells
[5] = target: human CCR8 (human) (UniProt P51685); assay: FACS on HuT78 cells (endogenous human CCR8)
[6] = target: human CCR8 (human) (UniProt P51685); assay: FACS, competition with CCL1 on CHO-K1-human CCR8 cells
[7] = target: human CCR8 (human) (UniProt P51685); assay: FACS, competition with AF647-human CCL1 on CHO-K1-human CCR8 cells; remark: listed apart in the source
[8] = target: human CCR8 (human) (UniProt P51685); assay: FACS on HEK293-human CCR8 cells
[9] = target: cynomolgus CCR8 (cynomolgus) (UniProt G7NYJ2); assay: FACS on HEK293-cynomolgus CCR8 cells
cynomolgus CCR8 (cynomolgus), sequence (G7NYJ2 entry or part of it): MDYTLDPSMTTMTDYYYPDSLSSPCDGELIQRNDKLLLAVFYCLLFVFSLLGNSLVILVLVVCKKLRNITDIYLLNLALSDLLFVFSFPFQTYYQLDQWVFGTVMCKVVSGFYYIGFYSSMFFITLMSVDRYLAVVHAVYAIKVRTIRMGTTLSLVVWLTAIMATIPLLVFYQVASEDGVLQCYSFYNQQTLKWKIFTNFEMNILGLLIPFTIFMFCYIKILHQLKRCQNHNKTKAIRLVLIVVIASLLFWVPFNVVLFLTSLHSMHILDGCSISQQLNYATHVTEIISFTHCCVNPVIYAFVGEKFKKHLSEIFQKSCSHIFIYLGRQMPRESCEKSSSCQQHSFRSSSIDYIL

[10] = target: cynomolgus CCR8 (cynomolgus) (UniProt G7NYJ2); assay: FACS on HEK293-cynomolgus CCR8 cells; remark: listed apart in the source
[11] = target: cynomolgus CCR8 (cynomolgus) (UniProt G7NYJ2); assay: FACS on HEK293-cynomolgus CCR8 cells; remark: listed apart in the source
[12] = target: cynomolgus CCR8 (cynomolgus) (UniProt G7NYJ2); assay: FACS on ExpiCHO-S-cynomolgus CCR8 cells
[13] = target: human CCR8 (human) (UniProt P51685); assay: FACS on HuT78 cells (endogenous human CCR8); remark: listed apart in the source
[14] = target: human CCR8 (human) (UniProt P51685); assay: FACS, competition with AF647-human CCL1 on CHO-K1-human CCR8 cells; remark: listed apart in the source
[15] = target: human CCR8 (human) (UniProt P51685); assay: FACS, competition with CCL1 on CHO-K1-human CCR8 cells; remark: listed apart in the source
[16] = target: human CCR8 (human) (UniProt P51685); assay: FACS on HEK293-human CCR8 cells; remark: listed apart in the source
[17] = target: cynomolgus CCR8 (cynomolgus) (UniProt G7NYJ2); assay: FACS on HEK293-cynomolgus CCR8 cells; remark: listed apart in the source
[18] = target: T2, human CCR1 (human) (UniProt P32246); assay: FACS on ExpiCHO-S-human CCR1 cells
T2 sequence (looked up): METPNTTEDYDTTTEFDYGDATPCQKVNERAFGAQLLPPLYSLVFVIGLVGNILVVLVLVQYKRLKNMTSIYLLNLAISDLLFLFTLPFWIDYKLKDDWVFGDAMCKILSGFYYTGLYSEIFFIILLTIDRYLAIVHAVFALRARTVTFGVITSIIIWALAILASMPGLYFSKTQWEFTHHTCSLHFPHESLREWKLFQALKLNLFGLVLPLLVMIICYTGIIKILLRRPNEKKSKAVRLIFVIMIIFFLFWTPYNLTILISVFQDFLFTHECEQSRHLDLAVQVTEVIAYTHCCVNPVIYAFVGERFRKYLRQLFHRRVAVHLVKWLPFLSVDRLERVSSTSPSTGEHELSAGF

[19] = target: human CCR8 (human) (UniProt P51685); assay: FACS on HEK293-human CCR8 cells; remark: listed apart in the source
[20] = target: human CCR8 (human) (UniProt P51685); assay: FACS, competition with AF647-human CCL1 on CHO-K1-human CCR8 cells; remark: listed apart in the source
[21] = target: human CCR8 (human) (UniProt P51685); assay: FACS on HEK293-human CCR8 cells; remark: listed apart in the source
[22] = target: cynomolgus CCR8 (cynomolgus) (UniProt G7NYJ2); assay: FACS on HEK293-Cynomolgus CCR8 cells

human CCR8 (human), sequence (P51685 whole entry): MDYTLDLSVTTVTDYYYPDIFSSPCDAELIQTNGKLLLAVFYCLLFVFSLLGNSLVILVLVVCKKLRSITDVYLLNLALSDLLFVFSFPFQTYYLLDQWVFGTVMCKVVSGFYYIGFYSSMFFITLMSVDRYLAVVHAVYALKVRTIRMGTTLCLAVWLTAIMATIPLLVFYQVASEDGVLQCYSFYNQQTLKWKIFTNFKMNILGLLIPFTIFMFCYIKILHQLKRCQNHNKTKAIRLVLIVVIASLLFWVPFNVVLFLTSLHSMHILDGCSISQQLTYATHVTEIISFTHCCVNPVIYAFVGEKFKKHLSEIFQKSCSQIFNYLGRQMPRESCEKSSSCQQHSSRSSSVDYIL

| Max Inhibition (%) [2] | Max MFI [3] | Max Inhibition (%) [7] | Max MFI [8] | Max MFI [9] | Max MFI [10] | Max MFI [12] | Max Inhibition (%) [14] | Max MFI [16] | Max MFI [17] | Max MFI [18] | Max MFI [19] | Max MFI [21] | Substance | further results |
| --- | --- | --- | --- | --- | --- | --- | --- | --- | --- | --- | --- | --- | --- | --- |
| – | – | – | – | – | – | – | – | – | – | – | – | – | HuIgG1-G1m Isotype (antibody) | Maximum MFI [1]: 5.96 MFI |
| 27.4% | 7 MFI | -4.1% | 167 MFI | 120 MFI | 14300 MFI | 13 MFI | -13% | 180 MFI | 331 MFI | 20.3 MFI | 222 MFI | – | Human IgG1 (antibody) | Max MFI [4]: 3860 MFI; Max MFI [5]: 7820 MFI; Max Inhibition (%) [6]: -4.58%; Max MFI [11]: 5690 MFI; Max MFI [13]: 16900 MFI; Max Inhibition (%) [15]: 17.8% |
| 28.7% | 6.6 MFI | 2.1% | 49 MFI | 158 MFI | 47 MFI | 5 MFI | -13.9% | 18 MFI | 40 MFI | 267 MFI | 261 MFI | 11 MFI | Mouse IgG2a (antibody) | Max Inhibition (%) [20]: 12.3% |
| – | – | – | – | – | – | – | – | – | – | – | – | 349 MFI | Mouse IgG2a isotype control (antibody) | Max MFI [22]: 396 MFI |
